Starred links: 1 amine or outer side, 2 acyl side, 3 side chain; linkers in the order of their positions; H or OH if unused. Non-standard residues stand in square brackets, D forms with d. Residues, ends and D or L forms follow the SMILES beside them. *: point of attachment. X3 = CC(C)(C)[Si](F)(c1ccc(C(=O)NC[C@@H](NC(=O)CN2CCN(CC(=O)O)CCN(CC(=O)O)CCN(CC(=O)O)CC2)C(=O)*)cc1)C(C)(C)C; DOTA = O=C(O)CN1CCN(CC(=O)O)CCN(CC(=O)*)CCN(CC(=O)O)CC1; d(γGlu) = O=C(O)[C@@H](CCC(=O)[*:2])N[*:1]; 1Nal = N[C@@H](Cc1cccc2ccccc12)C(=O)O; PEG6 = NCCOCCOCCOCCOCCOCCOCCC(=O)O; PEG5 = NCCOCCOCCOCCOCCOCCC(=O)O; NMeNle = CCCC[C@H](NC)C(=O)O; dOrn = NCCC[C@@H](N)C(=O)O; PEG3 = NCCOCCOCCOCCC(=O)O; Nle = CCCC[C@H](N)C(=O)O; AEEA = NCCOCCOCC(=O)O
Experiments:
CCK-2R = target: T1, CCK-2R (Rattus norvegicus, UniProt P30553); assay: Determination of IC50: CCK-2R affinity on AR4-2J cells, competition with [^177Lu]Lu-DOTA-PP-F11N; type: binding; conditions: AR4-2J cells; ^natLu-labeled; read-out: IC50 [nM] (n = 3), ^natLu-labeled
T1 construct: The CCK-2R expressing rat pancreatic tumor cells AR4-2J; host or cells: AR4-2J rat pancreatic tumor cells
T1 sequence (P30553 1-452): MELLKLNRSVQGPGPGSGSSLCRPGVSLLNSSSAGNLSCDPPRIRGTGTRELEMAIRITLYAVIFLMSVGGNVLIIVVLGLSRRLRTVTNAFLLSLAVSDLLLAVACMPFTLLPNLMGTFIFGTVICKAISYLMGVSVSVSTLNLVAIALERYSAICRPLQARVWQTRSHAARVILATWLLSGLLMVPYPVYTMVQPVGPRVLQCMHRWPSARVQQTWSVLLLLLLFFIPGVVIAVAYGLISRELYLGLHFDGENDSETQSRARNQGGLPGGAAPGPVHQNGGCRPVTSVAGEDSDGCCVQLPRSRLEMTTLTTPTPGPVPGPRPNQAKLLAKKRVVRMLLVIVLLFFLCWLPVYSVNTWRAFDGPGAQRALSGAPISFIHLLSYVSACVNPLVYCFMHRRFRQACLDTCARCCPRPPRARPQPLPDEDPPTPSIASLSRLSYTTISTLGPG
Procedure: AR4-2J cells were harvested 24 ± 2 h before the experiment and seeded in 24-well plates (2.0 × 10^5 cells in 1 mL/well). After removal of the nutrient medium (RPMI 1640, 5 mM L-Gln, 5 mL non-essential amino acids (100×), 10% FCS), the cells were washed once with 500 µL PBS. Thereafter, 200 µL nutrient medium (5% BSA, v/v) were added. Next, 25 µL per well of solutions containing either nutrient medium (5% BSA, v/v) as control or the respective compound in increasing concentration (10^-10 - 10^-4 M), were added with subsequent addition of 25 µL [^177Lu]Lu-DOTA-PP-F11N (0.3 pmol/well).
All experiments were performed in triplicate for each concentration. After 3 h incubation at 37 °C, the experiment was terminated by removal of the medium and consecutive rinsing with 300 µL PBS. The media of both steps were combined in one fraction and represent the amount of free radiolabeled reference. Afterwards, the cells were lysed with 300 µL of 1 M NaOH for at least 15 min and united with the 300 µL NaOH of the following washing step. Quantification of bound and free radiolabeled reference was accomplished in a γ-counter. IC50 determination for each conjugate was repeated twice.

[1] = n-Octanol-PBS distribution coefficient (logD7.4); type: physicochemical; conditions: pH = 7.4, ^177Lu-labeled
Procedure: Approximately 1 MBq of the labeled tracer was dissolved in 1 mL of a 1/1 mixture (v/v) of phosphate buffered saline (PBS, pH = 7.4) and n-octanol in an Eppendorf tube (1.5 mL). After vigorous mixing of the suspension for 3 min at rt, the vial was centrifuged at 9,000 rpm for 5 min (Biofuge 15, Heraeus Sepatech, Osterode, Germany) and 200 µL aliquots of both layers were measured in a γ-counter. The experiment was repeated at least five times.

| SMILES | IC50 (CCK-2R) [nM] | logD7.4 (n ≥ 5), ^177Lu-labeled [1] | logD7.4 (n ≥ 5), ^177Lu-labeled ([1]; listed as [^177Lu]Lu-DOTA-CCK-63) | logD7.4 (n ≥ 5), ^177Lu-labeled ([1]; listed as [^177Lu]Lu-DOTA-CCK-77) |
| --- | --- | --- | --- | --- |
| CCCC[C@@H](C(=O)N[C@@H](CC(=O)O)C(=O)N[C@@H](Cc1cccc2ccccc12)C(N)=O)N(C)C(=O)[C@H](Cc1c[nH]c2ccccc12)NC(=O)CNC(=O)[C@H](Cc1ccc(O)cc1)NC(=O)CNC(=O)CNC(=O)CN1CCN(CC(=O)O)CCN(CC(=O)O)CCN(CC(=O)O)CC1 [DOTA-CCK-56, DOTA-(Gly)2-Tyr-Gly-Trp-(N-Me)NIe-Asp-1-Nal-NH2] ({DOTA}-GGYGW[NMeNle]D[1Nal]-NH2) | 4.9 ± 0.8 | −1.38 ± 0.07 | – | – |
| CCCC[C@@H](C(=O)N[C@@H](CC(=O)O)C(=O)N[C@@H](Cc1cccc2ccccc12)C(N)=O)N(C)C(=O)[C@H](Cc1c[nH]c2ccccc12)NC(=O)CNC(=O)[C@H](Cc1ccc(O)cc1)NC(=O)[C@H](C)NC(=O)CNC(=O)CN1CCN(CC(=O)O)CCN(CC(=O)O)CCN(CC(=O)O)CC1 [DOTA-CCK-57, DOTA-Gly-Ala-Tyr-Gly-Trp-(N-Me)Nle-Asp-1-Nal-NH2] ({DOTA}-GAYGW[NMeNle]D[1Nal]-NH2) | 5.6 ± 0.5 | −1.26 ± 0.08 | – | – |
| CCCC[C@@H](C(=O)N[C@@H](CC(=O)O)C(=O)N[C@@H](Cc1cccc2ccccc12)C(N)=O)N(C)C(=O)[C@H](Cc1c[nH]c2ccccc12)NC(=O)CNC(=O)[C@H](Cc1ccc(O)cc1)NC(=O)CNC(=O)CC[C@@H](NC(=O)CN1CCN(CC(=O)O)CCN(CC(=O)O)CCN(CC(=O)O)CC1)C(=O)O [DOTA-CCK-59, DOTA-γ-glu-Gly-Tyr-Gly-Trp-(N-Me)Nle-Asp-1-Nal-NH2] ({DOTA-d(γGlu)}-GYGW[NMeNle]D[1Nal]-NH2) | 4.2 ± 0.5 | −2.63 ± 0.05 | – | – |
| CCCC[C@@H](C(=O)N[C@@H](CC(=O)O)C(=O)N[C@@H](Cc1cccc2ccccc12)C(N)=O)N(C)C(=O)[C@H](Cc1c[nH]c2ccccc12)NC(=O)CNC(=O)CNC(=O)[C@H](C)NC(=O)CC[C@@H](NC(=O)CN1CCN(CC(=O)O)CCN(CC(=O)O)CCN(CC(=O)O)CC1)C(=O)O [DOTA-CCK-60, DOTA-γ-glu-Ala-(Gly)2-Trp-(N-Me)Nle-Asp-1-Nal-NH2] ({DOTA-d(γGlu)}-AGGW[NMeNle]D[1Nal]-NH2) | 7.9 ± 0.43 | −2.56 ± 0.09 | – | – |
| CCCC[C@@H](C(=O)N[C@@H](CC(=O)O)C(=O)N[C@@H](Cc1cccc2ccccc12)C(N)=O)N(C)C(=O)[C@H](Cc1c[nH]c2ccccc12)NC(=O)CNC(=O)CNC(=O)CNC(=O)CC[C@@H](NC(=O)CN1CCN(CC(=O)O)CCN(CC(=O)O)CCN(CC(=O)O)CC1)C(=O)O [DOTA-CCK-62, DOTA-γ-glu-(Gly)3-Trp-(N-Me)Nle-Asp-1-Nal-NH2] ({DOTA-d(γGlu)}-GGGW[NMeNle]D[1Nal]-NH2) | 8.2 ± 1.3 | −2.66 ± 0.06 | – | – |
| CCCC[C@@H](C(=O)N[C@@H](CC(=O)O)C(=O)N[C@@H](Cc1cccc2ccccc12)C(N)=O)N(C)C(=O)[C@H](Cc1c[nH]c2ccccc12)NC(=O)CCOCCOCCOCCNC(=O)CC[C@@H](NC(=O)CN1CCN(CC(=O)O)CCN(CC(=O)O)CCN(CC(=O)O)CC1)C(=O)O [DOTA-CCK-63, DOTA-γ-glu-(PEG)2-Trp-(N-Me)Nle-Asp-1-Nal-NH2] ({DOTA-d(γGlu)-PEG3}-W[NMeNle]D[1Nal]-NH2) | 4.8 ± 1.1 | −3.03 ± 0.09 | < -3 | – |
| CCCC[C@@H](C(=O)N[C@@H](CC(=O)O)C(=O)N[C@@H](Cc1cccc2ccccc12)C(N)=O)N(C)C(=O)[C@H](Cc1c[nH]c2ccccc12)NC(=O)COCCOCCNC(=O)CC[C@@H](NC(=O)CN1CCN(CC(=O)O)CCN(CC(=O)O)CCN(CC(=O)O)CC1)C(=O)O [DOTA-CCK-77, DOTA-γ-glu-PEG-Trp-(N-Me)Nle-Asp-1-Nal-NH2] ({DOTA-d(γGlu)-AEEA}-W[NMeNle]D[1Nal]-NH2) | – | −3.09 ± 0.06 | – | < -3 |
| CCCC[C@@H](C(=O)N[C@@H](CC(=O)O)C(=O)N[C@@H](Cc1cccc2ccccc12)C(N)=O)N(C)C(=O)[C@H](Cc1c[nH]c2ccccc12)NC(=O)CCOCCOCCOCCOCCOCCNC(=O)CC[C@@H](NC(=O)CN1CCN(CC(=O)O)CCN(CC(=O)O)CCN(CC(=O)O)CC1)C(=O)O [DOTA-CCK-78, DOTA-γ-glu-(PEG)4-Trp-(N-Me)Nle-Asp-1-Nal-NH2] ({DOTA-d(γGlu)-PEG5}-W[NMeNle]D[1Nal]-NH2) | 6.7 ± 0.8 | −2.61 ± 0.06 | – | – |
| CCCC[C@@H](C(=O)N[C@@H](CC(=O)O)C(=O)N[C@@H](Cc1cccc2ccccc12)C(N)=O)N(C)C(=O)[C@H](Cc1c[nH]c2ccccc12)NC(=O)CCOCCOCCOCCOCCOCCOCCNC(=O)CC[C@@H](NC(=O)CN1CCN(CC(=O)O)CCN(CC(=O)O)CCN(CC(=O)O)CC1)C(=O)O [DOTA-CCK-79, DOTA-γ-glu-(PEG)5-Trp-(N-Me)Nle-Asp-1-Nal-NH2] ({DOTA-d(γGlu)-PEG6}-W[NMeNle]D[1Nal]-NH2) | 7 ± 0.6 | −2.59 ± 0.05 | – | – |
| CCCC[C@H](NC(=O)[C@H](Cc1c[nH]c2ccccc12)NC(=O)CNC(=O)[C@H](Cc1ccc(O)cc1)NC(=O)[C@H](C)NC(=O)CC[C@@H](NC(=O)CC[C@@H](NC(=O)CC[C@@H](NC(=O)CC[C@@H](NC(=O)CC[C@@H](NC(=O)[C@H](N)CCCNC(=O)[C@@H](CNC(=O)c1ccc([Si](F)(C(C)(C)C)C(C)(C)C)cc1)NC(=O)CN1CCN(CC(=O)O)CCN(CC(=O)O)CCN(CC(=O)O)CC1)C(=O)O)C(=O)O)C(=O)O)C(=O)O)C(=O)O)C(=O)N[C@@H](CC(=O)O)C(=O)N[C@@H](Cc1ccccc1)C(N)=O [DOTA-MG-SiFA-27, DOTA-dap(SiFA)-γ-orn-(γ-glu)5-F11N] (H-[dOrn](X3)[d(γGlu)][d(γGlu)][d(γGlu)][d(γGlu)][d(γGlu)]AYGW[Nle]DF-NH2) | – | −1.90 ± 0.10 | – | – |
| CCCC[C@H](NC(=O)[C@H](Cc1c[nH]c2ccccc12)NC(=O)CNC(=O)[C@H](Cc1ccc(O)cc1)NC(=O)[C@H](C)NC(=O)CC[C@@H](NC(=O)CC[C@@H](NC(=O)CC[C@@H](NC(=O)CC[C@@H](NC(=O)CC[C@@H](NC(=O)CC[C@@H](NC(=O)CC[C@@H](NC(=O)[C@H](N)CCCNC(=O)[C@@H](CNC(=O)c1ccc([Si](F)(C(C)(C)C)C(C)(C)C)cc1)NC(=O)CN1CCN(CC(=O)O)CCN(CC(=O)O)CCN(CC(=O)O)CC1)C(=O)O)C(=O)O)C(=O)O)C(=O)O)C(=O)O)C(=O)O)C(=O)O)C(=O)N[C@@H](CC(=O)O)C(=O)N[C@@H](Cc1ccccc1)C(N)=O [DOTA-MG-SiFA-28, DOTA-dap(SiFA)-γ-orn-(γ-glu)7-F11N] | – | −1.81 ± 0.10 | – | – |
| CCCC[C@H](NC(=O)[C@H](Cc1c[nH]c2ccccc12)NC(=O)CNC(=O)[C@H](Cc1ccc(O)cc1)NC(=O)[C@H](C)NC(=O)CC[C@@H](NC(=O)CC[C@@H](NC(=O)CC[C@@H](NC(=O)CC[C@@H](NC(=O)CC[C@@H](NC(=O)CC[C@@H](NC(=O)CC[C@@H](NC(=O)[C@H](N)CCCCNC(=O)[C@@H](CNC(=O)c1ccc([Si](F)(C(C)(C)C)C(C)(C)C)cc1)NC(=O)CN1CCN(CC(=O)O)CCN(CC(=O)O)CCN(CC(=O)O)CC1)C(=O)O)C(=O)O)C(=O)O)C(=O)O)C(=O)O)C(=O)O)C(=O)O)C(=O)N[C@@H](CC(=O)O)C(=O)N[C@@H](Cc1ccccc1)C(N)=O [DOTA-MG-SiFA-30, DOTA-dap(SiFA)-γ-lys-(γ-glu)7-F11N] | – | −1.74 ± 0.03 | – | – |
| CCCC[C@H](NC(=O)[C@H](Cc1c[nH]c2ccccc12)NC(=O)CNC(=O)[C@H](Cc1ccc(O)cc1)NC(=O)[C@H](C)NC(=O)CC[C@@H](NC(=O)CC[C@@H](NC(=O)CC[C@@H](NC(=O)CC[C@@H](NC(=O)CC[C@@H](NC(=O)CC[C@@H](NC(=O)CC[C@@H](NC(=O)[C@H](N)CCCCNC(=O)[C@@H](CNC(=O)c1ccc([Si](F)(C(C)(C)C)C(C)(C)C)cc1)NC(=O)[C@H](N)CCCCNC(=O)CN1CCN(CC(=O)O)CCN(CC(=O)O)CCN(CC(=O)O)CC1)C(=O)O)C(=O)O)C(=O)O)C(=O)O)C(=O)O)C(=O)O)C(=O)O)C(=O)N[C@@H](CC(=O)O)C(=O)N[C@@H](Cc1ccccc1)C(N)=O [DOTA-MG-SiFA-31, DOTA-γ-lys-dap(SiFA)-γ-lys-(γ-glu)7-F11N] | – | −1.88 ± 0.10 | – | – |

From EP4631959A2, “NOVEL MINIGASTRIN-DERIVED CHOLECYSTOKININ 2 RECEPTOR BINDING MOLECULES FOR IMAGING AND TARGETED RADIOTHERAPY” (priority 2022, dated 2024)
